# Test results: patent publication US20180169177A1, “POLYPEPTIDE SPECIFICALLY BINDING TO CD34 MOLECULE AND USE THEREOF” (Guangzhou Yidai Pharmaceutical Co., Ltd., priority 2015, published 2018)
# Assays:
# [1] = biological target: T1, CD34 molecules of K562 leukemia cells (Homo sapiens, UniProt P28906); experiment: Co-immunoprecipitation of CD34 binding polypeptide, fluorescence intensity by fluorospectrophotometer; details: 2b; for binding of polypeptide to protein co-immunoprecipitated with CD34 antibodies (fluorescence intensity): K562 total protein, CD34 antibody co-immunoprecipitation, NanoDrop 3300, FIGS. 2a
# T1 construct: endogenous in cells; host or cells: K562
# T1 sequence (P28906 32-385): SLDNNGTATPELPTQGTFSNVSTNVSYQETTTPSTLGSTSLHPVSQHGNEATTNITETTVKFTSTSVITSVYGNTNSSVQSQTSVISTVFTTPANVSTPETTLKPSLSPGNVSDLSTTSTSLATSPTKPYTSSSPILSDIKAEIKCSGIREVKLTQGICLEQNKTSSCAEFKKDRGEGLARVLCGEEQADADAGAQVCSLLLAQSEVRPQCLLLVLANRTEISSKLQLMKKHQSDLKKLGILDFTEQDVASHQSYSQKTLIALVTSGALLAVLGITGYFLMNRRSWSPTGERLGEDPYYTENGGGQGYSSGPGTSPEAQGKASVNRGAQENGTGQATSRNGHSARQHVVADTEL
# Protocol: (1) extracting total protein: wash K562 cell once with pre-cooled PBS buffer solution, remove the PBS, add 500 μL non-denatured protein lysate containing protease inhibitor into the culture dish, collect cells into a 1.5 mL centrifuge tube, perform ultra sonication for 4 times, 4 seconds each time, leave them on the ice for 30 minutes, and centrifuge them at 8000 rpm at 4° C. for 20 minutes, transfer the supernatant into a new centrifuge tube to obtain total protein products;
# (2) pretreatment of cellular total protein: add 50 μL confining liquid of normal goat serum into the cellular total protein products, and incubate them on the ice for 1 hour, then add 100 μL G-protein microsphere suspension (Calbiochem), incubate them at 4° C. for 20 minutes, centrifuge and remove the G-protein microsphere.
# (3) Co- immunoprecipitation: add CD34 antibodies (AR) into the total protein pretreated in step (2), take it as experimental groups, set control groups, wherein equal amount of PBS antibody diluent is added, and incubate them at 4° C. for 8 hours;
# (4) Binding of polypeptides and purification of G-protein antibodies: add polypeptides 17 and 19 into respective experimental groups and control group respectively, meanwhile add G-protein microsphere suspension, and incubate them at 4° C. for 4 hours;
# (5) Washing and elution: centrifuge at 4° C. to remove the supernatant, use washing liquor to wash for three times, centrifuge and remove the supernatant, add 2× SDS buffer solution in a volume the same as that of G-protein microsphere, treat them at 50° C. for 10 minutes, centrifuge and remove the microspheres, transfer the supernatant into a new EP tube, and add DTT (dithiothreitol) until the final concentration is 100 mM;
# (6) Testing fluorescence intensities of experimental groups and control groups using micro fluorospectro photometer (NanoDrop 3300).
# K562 cells [2] = experiment: Effect of CD34 binding polypeptide on adhesion of CD34 positive cells; assay type: cell-based; details: 2 μg/mL polypeptide, 6 hours, plates of FN, Collagen I and Mareigel, versus control NC, FIG. 4
# Protocol: Add the polypeptides 17 and 19 into incubating holes to set respective experimental groups (final concentration of polypeptide is 2 μg/mL).
# MNNG/HOS cells = experiment: Binding between CD34 binding polypeptide and human osteosarcoma cell line MNNG/HOS; assay type: cell-based; details: 2 μg/ml, 37° C., 2 hours, CD34 negative cell line, fluorescence microscope
# Protocol: Add 2 μg/ml polypeptides 17 and 19 into two culture dishes of well-grown MNNG/HOS cells (density of 80%) respectively, incubate them in an incubator at 37° C. for 2 hours, remove the culture solution, use 1 ml PBS to wash them for 3 times, add 5 ml culture solution, and use a fluorescence microscope to observe the binding between polypeptide and MNNG/HOS cells.
# [3] = biological target: T2, CD34 molecules in K562 leukemia cells (Homo sapiens, UniProt P28906); experiment: Immunofluorescence co-localisation of CD34 binding polypeptide and CD34 antibodies; details: fixed K562 cells, confocal microscope, FIGS. 3a, 3b
# T2 construct: endogenous in cells; host or cells: K562
# T2 sequence (P28906 32-385): T1 sequence (P28906 32-385)
# Protocol: (1) Preparation of cells: incubate K562 cell suspension in an incubator (37° C., 5% CO2). When the cell density reaches 80%, centrifuge and remove the culture solution, wash it once using PBS buffer solution, centrifuge it, take the cell suspension and drop it onto a glass slide coated with polylysine, and use cold acetone to fix for 10 minutes after drying.
# (2) Use PBS buffer solution to wash for three times, 5 minutes each time, and then use 5% BSA confining liquid to seal it at room temperature for 1 hour.
# (3) Incubation of primary antibodies: drop the primary antibody diluent of CD34 antibodies (AR) onto a slide, incubate it at 4° C. over night. Use PBS buffer solution to wash it for three times, 5 minutes each time.
# (4) Incubation of second antibodies and binding to polypeptide: add polypeptides 17 and 19 into diluted anti-rabbit antibodies labeled by Alexa Fluor 561 respectively, drop them onto cover glasses, incubate them at room temperature and keep shielded from light for 1 hour. Use PBS buffer solution to wash for three times, 5 minutes each time.
# (5) Use 1 μg/mL DAPI to stain at room temperature and keep shielded from light for 5 minutes, use PBS buffer solution to wash it for three times, 5 minutes each time.
# (6) After mounting with anti-fluorescence quenching agent, use laser scanning confocal microscope to observe and photograph.
# K562 cells [4] = experiment: Effect of CD34 binding polypeptide on proliferation of K562 cells; assay type: cell-based; details: 2 μg/ml polypeptide, replenished every 48 hours, counted for 6 days, FIG. 9
# Protocol: (1) Inoculate well-grown K562 cells in a 24-hole plate in cell concentration of 6000/ml/hole; set two experimental groups, wherein polypeptides 17 and 19 (polypeptide concentration is 2 μg/ml) are added into culture solutions respectively; set control groups, wherein polypeptide diluent in the same amount of polypeptide is added into the culture solution.
# (2) Count once every 24 hours, replenish CD34 binding polypeptide (polypeptide concentration is 2 μg/ml) once every 48 hours, and the counting lasts for 6 days; repeat the experiment three times;
# (3) draw cell growth curves, wherein the Y-axis is indicative of mean value of cell density each day, the X-axis is indicative of incubation time.
# [5] = system: CD34 negative cells (peripheral blood cells); experiment: Magnetic separation, binding to CD34 negative blood cells; assay type: cell-based; details: other blood cells
# Protocol: Mix polypeptides 17 and 19 adhering to the surfaces of nano-magnetic beads respectively with K562 cells and peripheral blood cells, and incubate them for 1 hour. Use magnetic sorter to sort, and the sorting efficiency of K562 cells is higher than 95%. […] A schematic diagram of the example is shown in FIG. 5, and the specific operation for magnetic separation of the example can be performed according to conventional magnetic techniques in the art.
# [6] = system: ductal epithelial cells and vascular endothelial cells of salivary gland; experiment: Immunofluorescence binding to salivary gland tissue sections; assay type: cell-based, human; details: 2 μg/mL polypeptide, 1 hour, room temperature, 6 μm frozen sections, FIG. 6a
# Protocol: In the example, immunofluorescence is used to test the binding between polypeptide and ductal epithelial cells and vascular endothelial cells of salivary gland.
# Embed the human salivary gland tissues with OCT, and slice them in a thickness of 6 μm at −20° C., fix with acetone for 15 minutes, use PBS to wash them for three times, 5 minutes each time. Incubate them with 2 μg/mL CD34 binding polypeptide (polypeptide 17) at room temperature for 1 hour, use PBS to wash for three times, 10 minutes each time. Drop 20 μL anti-fluorescence quenching agent for mounting, and preserve them being protected from light at 4° C., fluorescence microscope is used to observe and photograph.
Substance,binding of polypeptide to protein co-immunoprecipitated with CD34 antibodies (fluorescence intensity) [1],adhesion of K562 cells (count of adherent cells) (K562 cells [2]),binding between fluorescent polypeptide and MNNG/HOS cells (MNNG/HOS cells),binding to CD34 molecules (overlap of polypeptide green fluorescence and CD34 antibody red fluorescence) [3],proliferation rate of K562 leukemia cells versus control group (K562 cells [4]),binding to CD34 negative cells [5],binding to ductal epithelial cells and vascular endothelial cells of salivary gland tissue [6],"binding specificity, comparison between polypeptides ([1]; co-immunoprecipitation with CD34 antibodies, FIGS. 2a)"
"polypeptide 17: synthetic CD34 binding polypeptide displayed by phage 17, amino acid sequence SEQ ID NO: 1 (SSFASKKGYPFNRMCAS; Non-antibody binding protein capable of binding to CD34)",can specifically bind,inhibit the adhesion of K562 cells significantly,No binding,have bound to CD34 molecules,no significant difference,won't bind to CD34 negative cells,bind to ductal epithelial cells and vascular endothelial cells of salivary gland tissue,
"polypeptide 19: synthetic CD34 binding polypeptide displayed by phage 19, amino acid sequence SEQ ID NO: 2 (SSLGWWGPRRDFPGRRERIYLGIPWLSLLGSGAPSPV; Non-antibody binding protein capable of binding CD34)",can specifically bind,"inhibit the adhesion of K562 cells significantly, especially the culture solution containing the polypeptide 19",No binding,have bound to CD34 molecules,no significant difference,won't bind to CD34 negative cells,,better binding specificity than the polypeptide 17
